These results are taken from publication PMC6186450.

The assay addresses Human Plasma Fibronectin (human). Description: ITC.

A word on the Kd: it is the free concentration of one partner at which half of the binding sites on the other are occupied at equilibrium, for simple one-to-one binding. A higher Kd goes with a looser complex. 10 kDa PEG-FUD (peptide) returned a Kd of 4.6 nM.

In general, stoichiometry N refers to the number of molecules, sites or subunits per partner or assembly. The substance 20 kDa PEG-FUD (peptide) gave a Kd of 10 nM and a stoichiometry N of 1.63.

On to 40 kDa PEG-FUD (peptide), for which the Kd came to 14.7 nM and the dH is -32.5 kcal/mol.

Regarding “Functional Upstream Domain (FUD) peptide”, the Kd is 6 nM.
